According to patent publication US20230340091A1 (MOR RESEARCH APPLICATIONS, published 2023):

Molecular target: recombinant human alpha-synuclein preformed fibrils (PFF) (human, UniProt P37840 1-140)
Test: ELISA on coated alpha-synuclein PFF, Fab in serial dilution
Procedure: A standard ELISA assay was performed using alpha-synuclein PFFs as the coating protein.

| Binder | binding result |
| --- | --- |
| PMS213 (Fab 6), Fab format (Fab, V domains shown, Fab expressed in E. coli with His and myc tags on the heavy chain) VH: QVQLVQSGPGLVKPSETLSLICTVSGGSISSSNYYWGWVRQPPGKGLEWIGTIYYSGTTYYNPSLKSRVTISVDTSKNQFSLELSSVTAADTAVYYCARLGRGSAFDIWGQGTMVTVSS VL: SVVTQPPSLSAAPGQSITISCSGGGSNIGRNSVSWHRQFPGAAPELLAFDTFRRPSGVPDRFSGSKSGSSATLVITGLQTGDEADYYCGTWDNSLDSGVFGGGTKVTVLR | no binding |
| PMS209 (Fab 2), Fab format (Fab, V domains shown) VH: QVQLQESGPGLVKPSETLSLTCTVSGGSISSSSYYWGWIRQPPGKGLEWIGSIYYSGSTYYNPSLKSRVTISVDTSKNQFSLKLSSVTAADTAVYYCARLRRYDSSGFFFDYWGQGTLVTVSS VL: SVVTQPPSVSAAPGQKVTISCSGSSSNIGNNYVSWHQQLPGTAPKLLIYDNDRRPSGIPDRFSGSKSGTSATLAITGLQTGDEADYYCGTWDSSLSGGVFGGGTKVTVLS | no binding |
